In assay [1] the target is T1, mf TFRC ecto-mmh (REGN2054), monomeric monkey (cyno) Tfrc ectodomain with C-terminal myc-myc-hexahistidine tag (monkey (cyno), Macaca fascicularis, UniProt H9EXL1 89-760).
T1 construct: range 89-760; also called mfTfR-mmh; mfTFR-mmh
Put plainly: SPR (Biacore), mAb from CHO supernatant captured on anti-human Fc, 100 nM mfTfR-mmh injected, 25 C. The protocol:
Biacore binding kinetics assays were conducted for the interaction of 32 anti-human TfR IgG1 monoclonal antibodies from CHO supernatants with TfR reagents at 25° C.
Equilibrium dissociation constants (KD) for the interaction of anti-TfR monoclonal antibodies with human and fascicularis monkey TfR ecto domain recombinant proteins were determined using a real-time surface plasmon resonance (SPR) based Biacore S200 biosensor. All binding studies were performed in 10 mM HEPES, 150 mM NaCl, 3 mM EDTA, and 0.05% v/v surfactant Tween-20, pH 7.4 (HBS-EP) running buffer at […]. The Biacore CM5 sensor surface was first derivatized by amine coupling with a monoclonal mouse anti-human Fc antibody (REGN2567) followed by a step to capture anti-TfR monoclonal antibodies in CHO conditioned media. […] The dissociation of TfR bound to anti-TfR monoclonal antibodies was monitored for 3 minutes in HBS-EP running buffer. At the end of each cycle, the anti-TfR monoclonal antibodies capture surface was regenerated using a 12-sec injection of 20 mM H₃PO₄. The association rate (ka) and dissociation rate (kd) were determined by fitting the real-time binding sensorgrams to a 1:1 binding model with mass transport limitation using Scrubber 2.0 c software. The dissociation equilibrium constant (KD) and dissociative half-life (t½) were calculated from the kinetic rate constants as: […]

Assay [2] addresses T2, hmm.hTfRC (REGN2431), human transferrin receptor extracellular domain with hexahistidine-myc-myc tag (human, UniProt P02786 89-760).
T2 construct: Monomeric recombinant protein, 79210 g/mol; also called hTFR-mmh; His-myc-myc-hTFRC ecto
Put plainly: SPR (Biacore), mAb from CHO supernatant captured on anti-human Fc, 100 nM hTFR-mmh injected, 25 C. For orientation: In SPR one partner is held on a chip, and binding of the other changes the refractive index at the surface.

Assay [3] deals with T1, mf TFRC ecto-mmh (REGN2054), monomeric …. The assay is described as follows: SPR (Biacore), mAb captured on anti-human Fc, 100 nM mfTfR-mmh, 25 C.
In assay [4] the target is T2, hmm.hTfRC (REGN2431), human transferrin …. Put plainly: SPR (Biacore), mAb captured on anti-human Fc, 100 nM hTFR-mmh, 25 C.

T2 sequence (P02786 other isoform, or with tags, fused parts or gaps): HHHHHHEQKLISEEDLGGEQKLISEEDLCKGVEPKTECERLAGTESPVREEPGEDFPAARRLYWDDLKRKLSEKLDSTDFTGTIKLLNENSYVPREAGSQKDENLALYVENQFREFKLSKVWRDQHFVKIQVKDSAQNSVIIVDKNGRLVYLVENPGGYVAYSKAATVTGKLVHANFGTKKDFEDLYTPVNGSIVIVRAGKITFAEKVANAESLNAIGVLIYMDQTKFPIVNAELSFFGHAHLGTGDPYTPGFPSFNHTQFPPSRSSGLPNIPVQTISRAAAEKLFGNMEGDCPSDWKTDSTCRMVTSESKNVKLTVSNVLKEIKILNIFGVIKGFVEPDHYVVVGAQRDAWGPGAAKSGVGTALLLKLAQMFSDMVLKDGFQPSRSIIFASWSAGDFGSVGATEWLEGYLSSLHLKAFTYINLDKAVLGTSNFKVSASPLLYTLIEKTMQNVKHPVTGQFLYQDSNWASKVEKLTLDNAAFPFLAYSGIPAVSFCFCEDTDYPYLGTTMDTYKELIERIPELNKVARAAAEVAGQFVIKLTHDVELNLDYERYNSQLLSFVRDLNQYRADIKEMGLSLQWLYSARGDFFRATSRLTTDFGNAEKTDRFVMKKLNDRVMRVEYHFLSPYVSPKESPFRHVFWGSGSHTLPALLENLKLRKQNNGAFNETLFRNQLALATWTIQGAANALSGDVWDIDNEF
T1 sequence (chain, as listed by the source): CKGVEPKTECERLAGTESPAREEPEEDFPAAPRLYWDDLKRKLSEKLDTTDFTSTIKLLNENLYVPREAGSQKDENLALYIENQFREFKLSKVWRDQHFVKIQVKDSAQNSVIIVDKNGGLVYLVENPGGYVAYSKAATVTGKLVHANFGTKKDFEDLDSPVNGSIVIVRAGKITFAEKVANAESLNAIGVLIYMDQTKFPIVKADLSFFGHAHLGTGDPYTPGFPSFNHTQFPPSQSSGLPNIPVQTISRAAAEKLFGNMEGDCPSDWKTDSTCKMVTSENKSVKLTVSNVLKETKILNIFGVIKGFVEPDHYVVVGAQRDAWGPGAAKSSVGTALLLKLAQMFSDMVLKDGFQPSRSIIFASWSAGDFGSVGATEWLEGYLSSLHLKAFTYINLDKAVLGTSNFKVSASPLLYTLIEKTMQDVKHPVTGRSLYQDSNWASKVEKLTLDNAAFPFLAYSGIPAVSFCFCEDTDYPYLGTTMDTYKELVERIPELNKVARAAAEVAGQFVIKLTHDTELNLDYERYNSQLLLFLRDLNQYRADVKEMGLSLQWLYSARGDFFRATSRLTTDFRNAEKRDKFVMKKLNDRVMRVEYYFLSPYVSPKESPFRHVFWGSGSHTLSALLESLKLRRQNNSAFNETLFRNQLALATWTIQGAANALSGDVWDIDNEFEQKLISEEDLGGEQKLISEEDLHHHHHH

B1: 69332 (antibody, human IgG1, kappa, V domains shown)
VH: QVTLRESGPALVKPSQTLTLTCTFSGFSLNTYGMFVSWIRQPPGKALEWLAHIHWDDDKYYSTSLKTRLTISKDTSKNQVVLTMTNMDPVDTATYYCARGHNNLNYIIHWGQGTLVTVSS
VL: AIQMTQSPSSLSASVGDRVTITCRASQGIRNDLGWYQQKPGKAPKLLIYAASTLQSGVPSRFSGSGSGTDFTLTISSLQPEDFATYYCLQDYNYPFTFGPGTKVDIKR
notes: Tested as bivalent human IgG1 from CHO primary supernatant
For B1, the binding result in assay [1] and in assay [2] was “no binding (tested: 100 nM)” in each case. Further, the “100 nM Ag Bound (RU)” value in assay [3] is 1 RU; in assay [4] it was 9 RU.

B2: 69305 (antibody, human IgG1, kappa, V domains shown)
VH: QVQLVESGGGVVQPGRSLRLSCAASGFTFSSYGMHWVRQAPGKGLEWVAVIWYDGSNKYYADSVKGRFTISRDISKNTLYLQMNSLRAEDTAVYYCAGQLDLFFDYWGQGTLVTVSS
VL: DIQMTQSPSSLSASVGDRVTITCRASQSIDRYLNWYRQKPGKAPKLLIYTTSSLQSGVPSRFSGSGSGTDFTLTLSSLQPEDFATYYCQQSYSPPLTFGGGTKVEIKR
notes: as for B1
Consider B2, for which the binding result in assay [2] is listed as “no binding (tested: 100 nM)”. Moreover, the “100 nM Ag Bound (RU)” value is -7 RU in assay [3] and 6 RU in assay [4].

The record behind these values is US20250049896A1 (Regeneron, published 2025).
